Two substances from paper doi:10.1101/2025.07.08.663041 can be followed below.

One test concerns the target Caveolin-1 L125C 98W (UniProt Q03135).
The next test deals with Caveolin-1 I121C 98W (UniProt Q03135).

By stoichiometry N is commonly meant a count of units in the complex or per binding partner. With “Caveolin-1 L125C 98W (from UniProt Q03135 1-178) (natural protein)”, the stoichiometry N with Caveolin-1 L125C 98W was 2.
On to “Caveolin-1 I121C 98W (from UniProt Q03135 1-178) (natural protein)”, for which, in the test with Caveolin-1 I121C 98W, the stoichiometry N amounted to 2.
